Experimental data: PMC9887757

How the values were obtained:
[1] = target: BKPyV VLP genotype II (VP1 virus-like particles) (BK polyomavirus) (UniProt P03088); assay: ELISA
[2] = target: BKPyV VLP genotype III (VP1 virus-like particles) (BK polyomavirus) (UniProt P03088); assay: ELISA
[3] = target: BKPyV VLP genotype IVc2 (VP1 virus-like particles) (BK polyomavirus) (UniProt P03088); assay: ELISA
[4] = target: BKPyV VLP genotype Ia (VP1 virus-like particles) (BK polyomavirus) (UniProt P03088); assay: ELISA
BKPyV VLP genotype Ia (VP1 virus-like particles) (BK polyomavirus), sequence (P03088 whole entry): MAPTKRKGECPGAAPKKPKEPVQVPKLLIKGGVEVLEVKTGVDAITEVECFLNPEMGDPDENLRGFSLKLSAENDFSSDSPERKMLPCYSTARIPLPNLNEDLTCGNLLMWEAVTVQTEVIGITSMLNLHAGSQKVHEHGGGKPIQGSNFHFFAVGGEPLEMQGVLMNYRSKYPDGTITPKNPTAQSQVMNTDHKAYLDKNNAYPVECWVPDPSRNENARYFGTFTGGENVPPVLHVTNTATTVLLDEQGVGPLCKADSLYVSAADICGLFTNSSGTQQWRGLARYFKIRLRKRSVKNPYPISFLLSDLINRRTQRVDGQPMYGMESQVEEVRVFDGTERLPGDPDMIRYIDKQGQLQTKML

[5] = target: BKPyV VLP genotype II (VP1 virus-like particles) (BK polyomavirus) (UniProt P03088); assay: SPR; avidity
[6] = target: BKPyV VLP genotype III (VP1 virus-like particles) (BK polyomavirus) (UniProt P03088); assay: SPR; avidity
[7] = target: BKPyV VLP genotype IVc2 (VP1 virus-like particles) (BK polyomavirus) (UniProt P03088); assay: SPR; avidity
[8] = target: BKPyV VLP genotype Ia (VP1 virus-like particles) (BK polyomavirus) (UniProt P03088); assay: SPR; avidity

BKPyV VLP genotype III (VP1 virus-like particles) (BK polyomavirus), sequence (P03088 whole entry, looked up): as the sequence (P03088 whole entry) above
BKPyV VLP genotype II (VP1 virus-like particles) (BK polyomavirus), sequence (P03088 whole entry, looked up): as the sequence (P03088 whole entry) above
BKPyV VLP genotype IVc2 (VP1 virus-like particles) (BK polyomavirus), sequence (P03088 whole entry, looked up): as the sequence (P03088 whole entry) above

Substance | EC50 [1] | EC50 [2] | EC50 [3] | EC50 [4] | Kd [5] | Kd [6] | Kd [7] | Kd [8]
antibody 120 (clonotype 120, 41F17-like) (from UniProt P01857) | 0.26 nM | 0.24 nM | 0.19 nM | 0.17 nM | 0.16 nM | 0.21 nM | 0.86 nM | 0.11 nM
antibody 160 (clonotype 160, 41F17-like) (from UniProt P01857) | 0.38 nM | 0.13 nM | 0.14 nM | 0.14 nM | 0.28 nM | 0.17 nM | 0.27 nM | 0.23 nM
antibody 198 (clonotype 198, 41F17-like) (from UniProt P01857) | 1.41 nM | 0.9 nM | 0.43 nM | 0.54 nM | 2.29 nM | 0.11 nM | 0.28 nM | 1.63 nM
